Measured values taken from US10087225B2, “Formulation of MK2 inhibitor peptides” (MOERAE MATRIX, INC., priority 2015, dated 2018).

What was measured:
Test in all cases: Kinase Profiling Assay
Type in all cases: biochemical
[1] = biological target: cKit(V560G)(h) (Homo sapiens, UniProt P10721, V560G)
[2] = biological target: T1, SGK(h) (Homo sapiens, UniProt O00141)
T1 sequence (O00141 1-431): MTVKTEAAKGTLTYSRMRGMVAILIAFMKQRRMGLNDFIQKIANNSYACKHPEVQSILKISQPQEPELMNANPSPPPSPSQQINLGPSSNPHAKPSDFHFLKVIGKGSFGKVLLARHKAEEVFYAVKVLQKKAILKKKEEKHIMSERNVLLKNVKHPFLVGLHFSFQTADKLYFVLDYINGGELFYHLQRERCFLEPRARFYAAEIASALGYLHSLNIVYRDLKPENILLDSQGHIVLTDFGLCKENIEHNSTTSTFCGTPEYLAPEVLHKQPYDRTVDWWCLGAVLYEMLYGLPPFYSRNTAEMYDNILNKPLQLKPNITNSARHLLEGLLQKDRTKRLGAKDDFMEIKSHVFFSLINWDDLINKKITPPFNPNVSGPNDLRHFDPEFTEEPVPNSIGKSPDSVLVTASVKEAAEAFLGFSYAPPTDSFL

[3] = biological target: BTK(R28H)(h) (Homo sapiens, UniProt Q06187, R28H)
Sequence of BTK(R28H)(h) (Q06187 whole entry R28H): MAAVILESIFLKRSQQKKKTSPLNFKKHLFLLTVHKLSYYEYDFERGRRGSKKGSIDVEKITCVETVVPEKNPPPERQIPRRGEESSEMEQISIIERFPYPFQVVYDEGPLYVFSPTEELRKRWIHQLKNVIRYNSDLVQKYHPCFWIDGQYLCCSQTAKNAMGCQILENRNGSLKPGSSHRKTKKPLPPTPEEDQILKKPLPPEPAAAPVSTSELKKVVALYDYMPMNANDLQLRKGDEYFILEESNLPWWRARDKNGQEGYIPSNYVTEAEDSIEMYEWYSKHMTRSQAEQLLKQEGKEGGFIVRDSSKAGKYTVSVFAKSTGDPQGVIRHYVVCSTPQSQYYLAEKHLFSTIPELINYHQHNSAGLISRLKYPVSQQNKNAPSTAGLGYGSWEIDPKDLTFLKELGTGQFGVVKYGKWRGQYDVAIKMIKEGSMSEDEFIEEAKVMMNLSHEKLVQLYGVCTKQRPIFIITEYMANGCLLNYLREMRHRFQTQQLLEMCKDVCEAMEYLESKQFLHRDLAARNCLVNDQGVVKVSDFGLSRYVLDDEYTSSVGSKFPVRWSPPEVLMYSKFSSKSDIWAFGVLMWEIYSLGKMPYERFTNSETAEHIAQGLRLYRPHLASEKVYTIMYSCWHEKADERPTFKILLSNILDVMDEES

[4] = biological target: TrkA(h) (Homo sapiens, UniProt P04629)
Sequence of TrkA(h) (P04629 33-796): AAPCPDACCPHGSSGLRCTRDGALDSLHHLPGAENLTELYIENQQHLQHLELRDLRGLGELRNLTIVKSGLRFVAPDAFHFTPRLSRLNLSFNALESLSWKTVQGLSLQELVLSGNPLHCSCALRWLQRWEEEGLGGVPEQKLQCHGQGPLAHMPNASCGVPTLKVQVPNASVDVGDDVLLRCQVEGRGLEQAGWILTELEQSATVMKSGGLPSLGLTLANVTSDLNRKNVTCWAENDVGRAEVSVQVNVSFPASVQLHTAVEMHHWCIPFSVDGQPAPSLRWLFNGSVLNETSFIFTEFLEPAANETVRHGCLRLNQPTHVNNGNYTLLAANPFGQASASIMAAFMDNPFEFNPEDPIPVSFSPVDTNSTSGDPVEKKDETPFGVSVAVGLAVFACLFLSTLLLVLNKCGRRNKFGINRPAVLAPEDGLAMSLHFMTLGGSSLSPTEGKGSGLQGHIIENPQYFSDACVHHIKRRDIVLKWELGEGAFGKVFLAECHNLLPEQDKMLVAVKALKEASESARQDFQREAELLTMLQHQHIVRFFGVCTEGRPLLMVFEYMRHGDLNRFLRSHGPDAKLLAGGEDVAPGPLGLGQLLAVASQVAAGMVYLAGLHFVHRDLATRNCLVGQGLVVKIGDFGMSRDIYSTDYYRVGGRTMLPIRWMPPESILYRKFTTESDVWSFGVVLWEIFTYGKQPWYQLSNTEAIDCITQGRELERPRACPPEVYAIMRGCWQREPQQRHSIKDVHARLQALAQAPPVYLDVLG

[5] = biological target: T2, TAO3(h) (Homo sapiens, UniProt Q9H2K8)
T2 sequence (Q9H2K8 1-898): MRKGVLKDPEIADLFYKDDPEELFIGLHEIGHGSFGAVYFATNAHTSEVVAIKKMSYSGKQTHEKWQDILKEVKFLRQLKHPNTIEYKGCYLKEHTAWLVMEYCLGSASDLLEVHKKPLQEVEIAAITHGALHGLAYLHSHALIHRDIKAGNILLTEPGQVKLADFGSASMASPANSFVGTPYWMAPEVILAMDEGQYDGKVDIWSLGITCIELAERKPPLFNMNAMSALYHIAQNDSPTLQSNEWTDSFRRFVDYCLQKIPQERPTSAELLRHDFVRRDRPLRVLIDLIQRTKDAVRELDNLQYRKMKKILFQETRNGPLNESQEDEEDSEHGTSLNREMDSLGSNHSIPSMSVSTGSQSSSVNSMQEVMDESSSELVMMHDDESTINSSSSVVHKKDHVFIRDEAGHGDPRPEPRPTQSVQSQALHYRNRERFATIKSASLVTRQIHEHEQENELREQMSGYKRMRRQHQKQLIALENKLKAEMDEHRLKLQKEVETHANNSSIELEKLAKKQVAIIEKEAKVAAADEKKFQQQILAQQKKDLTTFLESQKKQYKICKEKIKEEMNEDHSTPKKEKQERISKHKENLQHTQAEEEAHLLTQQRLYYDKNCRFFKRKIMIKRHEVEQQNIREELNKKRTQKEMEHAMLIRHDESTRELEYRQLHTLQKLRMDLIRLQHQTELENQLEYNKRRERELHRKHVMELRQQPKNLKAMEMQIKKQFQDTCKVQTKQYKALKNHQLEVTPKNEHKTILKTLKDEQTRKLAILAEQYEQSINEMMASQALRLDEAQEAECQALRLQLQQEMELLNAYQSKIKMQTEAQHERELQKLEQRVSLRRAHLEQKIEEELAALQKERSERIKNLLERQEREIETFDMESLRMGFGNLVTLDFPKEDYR

[6] = biological target: FAK(h) (Homo sapiens, UniProt Q05397); details: 100 μM
[7] = biological target: T3, GRK7(h) (Homo sapiens, UniProt Q8WTQ7); details: 100 μM
T3 sequence (Q8WTQ7 1-553): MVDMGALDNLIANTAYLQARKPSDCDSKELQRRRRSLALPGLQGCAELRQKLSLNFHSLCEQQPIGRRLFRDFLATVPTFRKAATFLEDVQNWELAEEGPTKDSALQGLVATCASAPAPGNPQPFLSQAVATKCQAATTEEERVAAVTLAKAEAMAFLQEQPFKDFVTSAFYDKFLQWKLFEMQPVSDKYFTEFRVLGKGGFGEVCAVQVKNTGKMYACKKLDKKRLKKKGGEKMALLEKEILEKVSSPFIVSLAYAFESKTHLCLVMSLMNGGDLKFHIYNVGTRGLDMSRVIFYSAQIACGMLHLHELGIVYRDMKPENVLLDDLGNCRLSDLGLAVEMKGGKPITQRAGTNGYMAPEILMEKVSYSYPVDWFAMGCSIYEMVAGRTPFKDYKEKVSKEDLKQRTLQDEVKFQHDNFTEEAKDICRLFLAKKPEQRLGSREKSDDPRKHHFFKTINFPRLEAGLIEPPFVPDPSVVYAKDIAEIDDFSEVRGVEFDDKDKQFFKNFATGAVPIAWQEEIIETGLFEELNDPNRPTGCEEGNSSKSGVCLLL

[8] = biological target: CaMKIδ(h) (Homo sapiens, UniProt Q8IU85); details: 100 μM
Sequence of CaMKIδ(h) (Q8IU85 whole entry): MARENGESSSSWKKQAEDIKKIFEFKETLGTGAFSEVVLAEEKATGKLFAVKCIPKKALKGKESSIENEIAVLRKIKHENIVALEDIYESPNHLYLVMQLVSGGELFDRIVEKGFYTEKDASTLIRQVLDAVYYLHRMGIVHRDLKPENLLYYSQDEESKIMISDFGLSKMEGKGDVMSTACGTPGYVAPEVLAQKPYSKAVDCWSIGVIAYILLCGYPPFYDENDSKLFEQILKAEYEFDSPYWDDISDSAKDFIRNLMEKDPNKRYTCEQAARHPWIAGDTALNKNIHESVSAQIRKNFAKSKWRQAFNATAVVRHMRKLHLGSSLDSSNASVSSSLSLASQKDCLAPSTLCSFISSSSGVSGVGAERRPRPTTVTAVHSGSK

[9] = biological target: Ros(h) (Homo sapiens, UniProt P08922); details: 100 μM
[10] = biological target: CDK6/cyclinD3(h) (Homo sapiens, UniProt Q00534); details: 100 μM
Sequence of CDK6/cyclinD3(h) (Q00534 whole entry): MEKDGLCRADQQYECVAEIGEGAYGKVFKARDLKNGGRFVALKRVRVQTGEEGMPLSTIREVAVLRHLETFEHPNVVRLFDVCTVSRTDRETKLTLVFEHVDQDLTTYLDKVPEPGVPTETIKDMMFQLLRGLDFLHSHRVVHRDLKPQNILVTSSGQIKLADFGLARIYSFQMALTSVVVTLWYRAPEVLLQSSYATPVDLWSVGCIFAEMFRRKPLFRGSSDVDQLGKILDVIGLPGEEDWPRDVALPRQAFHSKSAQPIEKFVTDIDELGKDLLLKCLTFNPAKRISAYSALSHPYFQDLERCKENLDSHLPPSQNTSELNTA
Sequence of CDK6/cyclinD3(h) (P30281 whole entry partner): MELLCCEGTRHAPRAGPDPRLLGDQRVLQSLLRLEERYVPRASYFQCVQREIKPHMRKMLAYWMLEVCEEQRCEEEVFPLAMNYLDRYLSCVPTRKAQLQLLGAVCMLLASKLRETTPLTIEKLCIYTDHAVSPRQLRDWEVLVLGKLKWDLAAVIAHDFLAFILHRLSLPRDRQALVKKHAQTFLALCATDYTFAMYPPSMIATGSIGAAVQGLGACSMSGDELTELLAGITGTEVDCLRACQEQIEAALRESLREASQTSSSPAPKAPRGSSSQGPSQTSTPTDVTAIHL

[11] = biological target: DAPK2(h) (Homo sapiens, UniProt Q9UIK4); details: 100 μM
Sequence of DAPK2(h) (Q9UIK4 whole entry): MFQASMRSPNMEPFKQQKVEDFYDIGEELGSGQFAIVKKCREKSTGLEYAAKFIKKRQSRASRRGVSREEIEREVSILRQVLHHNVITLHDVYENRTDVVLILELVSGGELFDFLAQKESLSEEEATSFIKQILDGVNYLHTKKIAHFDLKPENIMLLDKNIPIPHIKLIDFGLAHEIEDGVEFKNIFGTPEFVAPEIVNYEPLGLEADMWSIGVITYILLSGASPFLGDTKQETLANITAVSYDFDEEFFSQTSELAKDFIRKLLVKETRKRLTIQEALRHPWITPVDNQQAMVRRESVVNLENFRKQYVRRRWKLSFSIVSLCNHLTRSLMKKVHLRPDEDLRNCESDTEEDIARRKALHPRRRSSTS

[12] = biological target: PDGFRα(h) (Homo sapiens, UniProt P16234); details: 100 μM
[13] = biological target: mTOR/FKBP12(h) (Homo sapiens, UniProt P42345); details: 100 μM
Sequence of mTOR/FKBP12(h) (P42345 1362-2549 limits assumed): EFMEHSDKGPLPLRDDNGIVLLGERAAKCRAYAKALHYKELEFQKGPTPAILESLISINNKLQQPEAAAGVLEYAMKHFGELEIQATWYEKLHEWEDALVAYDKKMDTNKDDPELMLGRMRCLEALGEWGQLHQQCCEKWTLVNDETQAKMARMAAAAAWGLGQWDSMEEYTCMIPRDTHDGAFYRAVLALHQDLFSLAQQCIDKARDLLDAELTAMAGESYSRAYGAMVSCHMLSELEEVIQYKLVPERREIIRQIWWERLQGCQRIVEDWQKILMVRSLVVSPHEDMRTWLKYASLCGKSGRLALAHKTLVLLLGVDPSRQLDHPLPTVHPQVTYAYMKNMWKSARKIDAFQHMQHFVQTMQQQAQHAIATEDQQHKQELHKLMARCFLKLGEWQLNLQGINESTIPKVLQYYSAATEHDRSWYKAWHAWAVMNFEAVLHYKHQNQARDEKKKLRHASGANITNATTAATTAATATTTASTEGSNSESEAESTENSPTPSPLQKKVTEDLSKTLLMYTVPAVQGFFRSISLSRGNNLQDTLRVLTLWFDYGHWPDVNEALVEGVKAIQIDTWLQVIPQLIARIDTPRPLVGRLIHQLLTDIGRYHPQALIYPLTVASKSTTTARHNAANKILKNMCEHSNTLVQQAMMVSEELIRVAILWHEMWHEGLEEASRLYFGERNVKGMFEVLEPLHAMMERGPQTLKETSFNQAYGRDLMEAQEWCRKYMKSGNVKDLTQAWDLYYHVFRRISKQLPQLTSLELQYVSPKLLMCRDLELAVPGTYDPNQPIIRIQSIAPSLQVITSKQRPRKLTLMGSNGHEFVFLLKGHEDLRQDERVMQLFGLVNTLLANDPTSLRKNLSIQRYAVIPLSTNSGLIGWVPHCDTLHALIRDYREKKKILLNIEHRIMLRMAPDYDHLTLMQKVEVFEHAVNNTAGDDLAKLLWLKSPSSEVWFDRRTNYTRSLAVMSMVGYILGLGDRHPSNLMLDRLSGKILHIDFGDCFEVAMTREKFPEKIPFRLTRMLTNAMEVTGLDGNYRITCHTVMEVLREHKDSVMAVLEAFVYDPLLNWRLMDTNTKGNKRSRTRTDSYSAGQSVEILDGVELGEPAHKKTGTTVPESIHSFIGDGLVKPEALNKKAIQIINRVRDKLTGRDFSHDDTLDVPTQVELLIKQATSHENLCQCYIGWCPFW

[14] = biological target: Met(h) (Homo sapiens, UniProt P08581); details: 100 μM
[15] = biological target: ROCK-II(h) (Homo sapiens, UniProt O75116); details: 100 μM
[16] = biological target: PAR-1Bα(h) (Homo sapiens, UniProt Q7KZI7); details: 100 μM
[17] = biological target: PKCη(h) (Homo sapiens, UniProt P24723); details: 100 μM
Sequence of PKCη(h) (P24723 whole entry): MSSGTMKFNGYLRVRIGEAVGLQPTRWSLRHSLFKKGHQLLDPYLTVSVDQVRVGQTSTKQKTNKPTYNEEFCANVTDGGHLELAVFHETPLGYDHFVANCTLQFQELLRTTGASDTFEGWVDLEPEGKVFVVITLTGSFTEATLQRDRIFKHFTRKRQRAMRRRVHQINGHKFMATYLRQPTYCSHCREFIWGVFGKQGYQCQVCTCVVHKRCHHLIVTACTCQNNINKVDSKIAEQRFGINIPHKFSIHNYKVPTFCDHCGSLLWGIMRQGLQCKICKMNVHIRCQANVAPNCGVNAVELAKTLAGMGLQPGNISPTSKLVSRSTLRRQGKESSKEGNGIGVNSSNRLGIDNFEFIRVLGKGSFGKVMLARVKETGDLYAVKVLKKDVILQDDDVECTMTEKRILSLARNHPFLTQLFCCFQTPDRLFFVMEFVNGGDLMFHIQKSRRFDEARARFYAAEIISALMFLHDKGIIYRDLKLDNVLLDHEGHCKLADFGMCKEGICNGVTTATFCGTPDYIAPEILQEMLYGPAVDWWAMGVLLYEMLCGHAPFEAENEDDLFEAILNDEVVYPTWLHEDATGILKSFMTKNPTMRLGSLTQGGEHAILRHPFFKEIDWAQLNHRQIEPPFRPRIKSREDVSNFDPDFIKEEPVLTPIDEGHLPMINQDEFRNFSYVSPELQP

[18] = biological target: CaMKIIβ(h) (Homo sapiens, UniProt Q13554); details: 100 μM

| Substance | % activity [6] | % activity [7] | % activity [8] | % activity [9] | % activity [10] | % activity [11] | % activity [12] | % activity [13] | % activity [14] | % activity [15] | % activity [16] | % activity [17] | % activity [18] | other results |
| --- | --- | --- | --- | --- | --- | --- | --- | --- | --- | --- | --- | --- | --- | --- |
| H-YARAAARQARAKALARQLGVAA-OH [MMI-0100] | – | – | – | – | – | – | – | – | – | – | – | – | – | activity at 100 µM [1]: 94%; activity at 100 µM [2]: 128%; activity at 100 µM [3]: 91%; activity at 100 µM [4]: 74%; activity at 100 µM [5]: 45% |
| HRRIKAWLKKIKALARQLGVAA (Mammalian) [MMI-0500] | 94% | 93% | 0% | 150% | 23% | 3% | 40% | 140% | 27% | 2% | 97% | 45% | 3% | % activity ([1]; 100 μM): 198%; % activity ([2]; 100 μM): 2%; % activity ([3]; 100 μM): 10%; % activity ([4]; 100 μM): 24%; % activity ([5]; 100 μM): 12% |
| YARAAARQARAKALNRQLGVA (Mammalian) [MMI-0200] | 110% | 124% | 47% | 86% | 100% | 92% | 108% | 118% | 71% | 85% | 110% | 101% | 53% | – |
